Assay results published in patent US20240092890A1 (JUNTENDO EDUCATIONAL FOUNDATION, published 2024).
Residue numbers refer to the chain shown, from its start.

T1: protein having an Fc region and a His-tag added to the N-terminus of SEQ ID NO: 1
T1 construct: also called mutant CALR protein (antigen of the BLItz measurement); not shown: Fc region and His-tag at the N-terminus
T1 chain: RRMMRTKMRMRRM

T2: Ins 5 type mutant CALR protein on UT-7/TPO CALR Ins 5 cells (UniProt P27797 18-417)
T2 sequence (looked up): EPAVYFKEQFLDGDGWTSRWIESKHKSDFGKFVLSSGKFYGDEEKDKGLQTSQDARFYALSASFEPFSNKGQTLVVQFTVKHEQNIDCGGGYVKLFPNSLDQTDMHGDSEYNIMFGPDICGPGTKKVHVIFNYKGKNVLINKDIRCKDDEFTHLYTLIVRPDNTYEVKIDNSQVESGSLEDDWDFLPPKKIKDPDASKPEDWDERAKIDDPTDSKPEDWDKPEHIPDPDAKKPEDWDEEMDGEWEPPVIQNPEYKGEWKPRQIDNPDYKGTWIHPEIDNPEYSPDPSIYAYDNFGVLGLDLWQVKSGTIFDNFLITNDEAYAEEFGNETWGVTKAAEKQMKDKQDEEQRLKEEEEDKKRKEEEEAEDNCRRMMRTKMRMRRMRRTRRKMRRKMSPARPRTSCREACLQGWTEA

B1: Antibody 62 (bispecific antibody)
chain 1: not shown
chain 2: DIQMTQSPSFVSASVGDRVTITCLASEDIYSYLAWYQQKPGKAPKLLIFAANRLQDGVPSRFSGGGSGTGFTLTISSLQPEDFATYFCLQGSKFPYTFGQGTKLEINRTVAAPSVFIFPPSDEQLKSGTASVVCLLNNFYPREAKVQWKVDNALQSGNSQESVTEQDSKDSTYSLSSTLTLSKADYEKHKVYACEVTHQGLSSPVTKSFNRGEC
B2: Antibody 82 (bispecific antibody)
chain 1: not shown
chain 2: B1 chain 2 with F10S, V11L, D56S, G65S, G70D, F87Y, Q100P, L104V, E105D, N107K
B3: Antibody 67 (bispecific antibody)
chain 1: not shown
chain 2: B1 chain 2
B4: Antibody 58 (bispecific antibody)
chain 1: not shown
chain 2: B1 chain 2
B5: Antibody 59 (bispecific antibody)
chain 1: not shown
chain 2: B1 chain 2
B6: Antibody 72 (bispecific antibody)
chain 1: not shown
chain 2: B1 chain 2 with D56S
B7: Antibody 76 (bispecific antibody)
chain 1: not shown
chain 2: B1 chain 2 with D56S, N107K
B8: Antibody 77 (bispecific antibody)
chain 1: not shown
chain 2: B1 chain 2 with D56S, N107K
B9: Antibody 64 (bispecific antibody)
chain 1: not shown
chain 2: B1 chain 2
B10: Antibody 71 (bispecific antibody)
chain 1: not shown
chain 2: B1 chain 2 with D56S
B11: Antibody 70 (bispecific antibody)
chain 1: not shown
chain 2: B1 chain 2 with D56S
B12: Antibody 69 (bispecific antibody)
chain 1: not shown
chain 2: B1 chain 2 with D56S
B13: Antibody 83 (bispecific antibody)
chain 1: not shown
chain 2: B1 chain 2 with F10S, V11L, D56S, G65S, G70D, F87Y, Q100P, L104V, E105D, N107K
B14: Antibody 80 (bispecific antibody)
chain 1: not shown
chain 2: B1 chain 2 with F10S, V11L, G65S, G70D, F87Y, Q100P, L104V, E105D, N107K
B15: Antibody 74 (bispecific antibody)
chain 1: not shown
chain 2: B1 chain 2 with D56S, N107K
B16: Antibody 63 (bispecific antibody)
chain 1: not shown
chain 2: B1 chain 2
B17: Antibody 65 (bispecific antibody)
chain 1: not shown
chain 2: B1 chain 2
B18: Antibody 56 (bispecific antibody)
chain 1: not shown
chain 2: B1 chain 2
B19: Antibody 60 (bispecific antibody)
chain 1: not shown
chain 2: B1 chain 2
B20: Antibody 61 (bispecific antibody)
chain 1: not shown
chain 2: B1 chain 2
B21: Antibody 84 (bispecific antibody)
chain 1: not shown
chain 2: B1 chain 2 with F10S, V11L, D56S, G65S, G70D, F87Y, Q100P, L104V, E105D, N107K
B22: Antibody 75 (bispecific antibody)
chain 1: not shown
chain 2: B1 chain 2 with D56S, N107K
B23: Antibody 85 (bispecific antibody)
chain 1: not shown
chain 2: B1 chain 2 with F10S, V11L, D56S, G65S, G70D, F87Y, Q100P, L104V, E105D, N107K
B24: Antibody 78 (bispecific antibody)
chain 1: not shown
chain 2: B1 chain 2 with D56S, N107K
B25: Antibody 66 (bispecific antibody)
chain 1: not shown
chain 2: B1 chain 2
B26: Antibody 57 (bispecific antibody)
chain 1: not shown
chain 2: B1 chain 2
B27: Antibody 68 (bispecific antibody)
chain 1: not shown
chain 2: B1 chain 2 with D56S
B28: Antibody 25 (bispecific antibody)
heavy: QVQLQQSGAELVKPGSSVKISCKASGYTFTRNFIHWIKQQPGNGLEWIGWIFPGDGDTEYNQKFNGKATLTADKSSSTAYMQLSSLTSEDSAVYFCARGNYNYEYFDYWGQGVMVTVSSASTKGPSVFPLAPSSKSTSGGTAALGCLVKDYFPEPVTVSWNSGALTSGVHTFPAVLQSSGLYSLSSVVTVPSSSLGTQTYICNVNHKPSNTKVDKRVEPKSCAAAGGGQPREPQVYTLPPSREEMTKNQVSLTCLVKGFYPSDIAVEWESNGQPENNYKTTPPVLDSDGSFFLYSKLTVDKSRWQQGNVFSCSVMHEALHNHYTQKSLSLSPGK
light: QVQLVQSGGGVVQPGRSLRLSCKASGYTFTRYTMHWVRQAPGKGLEWIGYINPSRGYTNYNQKVKDRFTISRDNSKNTAFLQMDSLRPEDTGVYFCARYYDDHYSLDYWGQGTPVTVSSGGGGSGGGGSGGGGSDIQMTQSPSSLSASVGDRVTITCSASSSVSYMNWYQQTPGKAPKRWIYDTSKLASGVPSRFSGSGSGTDYTFTISSLQPEDIATYYCQQWSSNPFTFGQGTKLQITRGGGGSDIQMTQSPASLSASLGETVSIECLASEDIYSYLAWYQQKPGKSPQLLIFAANRLQDGVPSRFSGSGSGTQFSLKISGMQPEDEGDYFCLQGSKFPYTFGPGTKLELNRTVAAPSVFIFPPSDEQLKSGTASVVCLLNNFYPREAKVQWKVDNALQSGNSQESVTEQDSKDSTYSLSSTLTLSKADYEKHKVYACEVTHQGLSSPVTKSFNRGEC
B29: Antibody 11 (bispecific antibody)
chain: QVQLVQSGGGVVQPGRSLRLSCKASGYTFTRYTMHWVRQAPGKGLEWIGYINPSRGYTNYNQKVKDRFTISRDNSKNTAFLQMDSLRPEDTGVYFCARYYDDHYSLDYWGQGTPVTVSSGGGGSGGGGSGGGGSDIQMTQSPSSLSASVGDRVTITCSASSSVSYMNWYQQTPGKAPKRWIYDTSKLASGVPSRFSGSGSGTDYTFTISSLQPEDIATYYCQQWSSNPFTFGQGTKLQITRGGGGSQVQLQQSGAELVKPGSSVKISCKASGYTFTRNFIHWIKQQPGNGLEWIGWIFPGDGDTEYNQKFNGKATLTADKSSSTAYMQLSSLTSEDSAVYFCARGNYNYEYFDYWGQGVMVTVSSGGGGSGGGGSGGGGSDIQMTQSPASLSASLGETVSIECLASEDIYSYLAWYQQKPGKSPQLLIFAANRLQDGVPSRFSGSGSGTQFSLKISGMQPEDEGDYFCLQGSKFPYTFGPGTKLELNHHHHHH

Biological target: T1, protein having an Fc region and a …
Assay: BLItz biolayer interferometry, Fc/His-SEQ ID NO: 1 protein on the biosensor
Procedure: As another method, measurements were performed using the molecular interaction analysis system BLItz (ForteBio), which applies biolayer interferometry […]. Specifically, a protein having an Fc region and a His-tag added to the N-terminus of SEQ ID NO: 1 was immobilized at a concentration of 0.1 mg/mL using the Anti-Penta-HIS or ProteinA biosensor (ForteBio). Subsequently, the antibodies 1 to 114 made were prepared at a concentration of 500, 100, and 50 nM and reacted to acquire the dissociation constant.

| Binder | Kd [pM] |
| --- | --- |
| B1 | < 1 |
| B2 | < 1 |
| B3 | < 1 |
| B4 | < 1 |
| B5 | < 1 |
| B6 | < 1 |
| B7 | < 1 |
| B8 | < 1 |
| B9 | < 1 |
| B10 | 554 |
| B11 | < 1 |
| B12 | < 1 |
| B13 | < 1 |
| B14 | < 1 |
| B15 | < 1 |
| B16 | 262 |
| B17 | < 1 |
| B18 | < 1 |
| B19 | < 1 |
| B20 | < 1 |
| B21 | < 1 |
| B22 | < 1 |
| B23 | < 1 |
| B24 | < 1 |
| B25 | < 1 |
| B26 | < 1 |
| B27 | < 1 |

biological target: T2, Ins 5 type mutant CALR protein on …; assay: cell-based or functional assay

| Binder | EC50 of cytotoxic activity (pM) |
| --- | --- |
| B1 | 91 |
| B2 | 22 |
| B3 | 5900 |
| B4 | 1530 |
| B5 | 469 |
| B6 | 93 |
| B7 | 300 |
| B8 | 129 |
| B9 | 829 |
| B10 | 448 |
| B11 | 507 |
| B12 | 162 |
| B13 | 110 |
| B14 | 28 |
| B15 | 31 |
| B16 | 197 |
| B17 | 397 |
| B18 | 45 |
| B19 | 77 |
| B20 | 9760 |
| B21 | 277 |
| B22 | 77 |
| B23 | 389 |
| B24 | 63 |
| B25 | 115 |
| B26 | 398 |
| B27 | 27 |

biological target: T2, Ins 5 type mutant CALR protein on …; assay: cell-based or functional assay; remark: another data set of the same source

| Binder | EC50 of cytotoxic activity (calcein release, T-LAK effector cells) [pM] |
| --- | --- |
| B28 | 56 |
| B29 | 1260 |
